Laboratory results from patent US20090188010A1.

What was measured:
Assay in all cases: cell-based or functional assay
[1] = target: NaPI-insensitive chymotrypsin from H. punctigera (HpCh5), native enzyme from the larval gut (Helicoverpa punctigera)
[2] = target: Bovine chymotrypsin (bovine) (UniProt P00766)
[3] = target: chymotrypsins in unfractionated gut extracts from H. punctigera larvae

Chain of soybean trypsin inhibitor (P01070 25-205): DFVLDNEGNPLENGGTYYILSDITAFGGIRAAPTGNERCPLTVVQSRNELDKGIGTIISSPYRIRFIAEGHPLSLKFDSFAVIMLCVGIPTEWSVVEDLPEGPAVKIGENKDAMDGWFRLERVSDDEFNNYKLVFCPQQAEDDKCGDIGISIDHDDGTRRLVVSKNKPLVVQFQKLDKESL
Chain of NaPI-insensitive chymotrypsin from H. punctigera (HpCh5), native enzyme from the larval gut (Helicoverpa punctigera) (chain, as listed by the source limits assumed): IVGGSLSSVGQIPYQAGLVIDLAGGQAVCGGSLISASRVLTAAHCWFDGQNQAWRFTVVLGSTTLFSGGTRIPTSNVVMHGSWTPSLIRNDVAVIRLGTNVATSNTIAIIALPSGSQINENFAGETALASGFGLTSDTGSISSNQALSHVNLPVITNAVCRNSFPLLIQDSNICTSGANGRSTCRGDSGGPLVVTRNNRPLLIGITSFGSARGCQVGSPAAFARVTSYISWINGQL
Chain of lima bean trypsin inhibitor (Sigma) (P01056 whole entry): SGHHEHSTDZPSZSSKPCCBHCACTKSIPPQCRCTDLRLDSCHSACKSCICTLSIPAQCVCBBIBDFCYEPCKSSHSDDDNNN
Chain of soybean Bowman Birk inhibitor (P01055 40-110 limits assumed): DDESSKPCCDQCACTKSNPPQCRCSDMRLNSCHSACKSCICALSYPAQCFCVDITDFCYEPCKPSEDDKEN

| % Inhibition of chymotrypsin activity at the maximum concentration tested (10 µM) [1] [%] | IC50 of inhibition of chymotrypsin activity [1] [µM] | % Inhibition of chymotrypsin activity at the maximum concentration tested (5 µM) [2] [%] | IC50 of inhibition of chymotrypsin activity [2] [µM] | degree of inhibition of gut chymotrypsin activity of control insects, 80 nM C1 (FIG. 2F) [3] [%] | % Inhibition of chymotrypsin activity at the maximum concentration tested (>20 µM) [1] [%] | % Inhibition of chymotrypsin activity at the maximum concentration tested (>20 µM) [2] [%] | Substance |
| --- | --- | --- | --- | --- | --- | --- | --- |
| 100 | 0.24 | 100 | 0.06 |  |  |  | soybean Bowman Birk inhibitor (from UniProt P01055 40-110) |
|  |  |  |  | 75 |  |  | C1 monomer, chymotrypsin inhibitor from the N. alata proteinase inhibitor precursor, HPLC purified |
|  | 3 | 100 | 0.2 |  | 89 |  | lima bean trypsin inhibitor (Sigma) (from UniProt P01056 1-83) |
|  | 33 |  | 13 |  | 82 | 94 | soybean trypsin inhibitor (from UniProt P01070 25-205) |
